Source: PMC10501992, “How Pol α-primase is targeted to replisomes to prime eukaryotic DNA replication” (Molecular Cell, 2023)

Columns and labels:
Experiment in all cases: cryo-EM structure; human replisome: 150 nM CMG on fork DNA (60 nt or 15 nt 5′ flap) with 1.5-fold molar excess of AND-1, TIMELESS-TIPIN, CLASPIN and Pol α-primase; 25 mM HEPES-NaOH pH 7.6, 150 mM NaOAc, 0.5 mM TCEP, 500 μM AMP-PNP, 10 mM Mg(OAc)2, on ice; 10-30% glycerol gradient with glutaraldehyde and BS3 cross-linkers
[1] = biological target: T1, human CMG (CDC45-MCM-GINS) replicative helicase (human, UniProt O75419 1-566; P49736 1-904; P25205 1-808; P33991 1-863; P33992 1-734; Q14566 …); conditions: both partners purified
T1 construct: CDC45, human; MCM2, human; MCM3, human; MCM4, human; MCM5, human; MCM6, human; MCM7, human; PSF1, subunit of GINS, human; PSF2, subunit of GINS, human; PSF3, subunit of GINS, human; SLD5, subunit of GINS, human; the subunits are named in the methods for the MCM3-4A form, which was made as the wild type; copies: + + + + + + + + + +

[2] = biological target: T2, POLA1 (human Pol α catalytic subunit) (human, UniProt P09884 1-1462); conditions: both partners purified
T2 construct: POLA1, human; modelled residues 1279-1445 and 1448-1458 (CTD); stood in the assay as a subunit of m18; also called POLA1CTD; POLA1_(exo-cat)
T2 sequence: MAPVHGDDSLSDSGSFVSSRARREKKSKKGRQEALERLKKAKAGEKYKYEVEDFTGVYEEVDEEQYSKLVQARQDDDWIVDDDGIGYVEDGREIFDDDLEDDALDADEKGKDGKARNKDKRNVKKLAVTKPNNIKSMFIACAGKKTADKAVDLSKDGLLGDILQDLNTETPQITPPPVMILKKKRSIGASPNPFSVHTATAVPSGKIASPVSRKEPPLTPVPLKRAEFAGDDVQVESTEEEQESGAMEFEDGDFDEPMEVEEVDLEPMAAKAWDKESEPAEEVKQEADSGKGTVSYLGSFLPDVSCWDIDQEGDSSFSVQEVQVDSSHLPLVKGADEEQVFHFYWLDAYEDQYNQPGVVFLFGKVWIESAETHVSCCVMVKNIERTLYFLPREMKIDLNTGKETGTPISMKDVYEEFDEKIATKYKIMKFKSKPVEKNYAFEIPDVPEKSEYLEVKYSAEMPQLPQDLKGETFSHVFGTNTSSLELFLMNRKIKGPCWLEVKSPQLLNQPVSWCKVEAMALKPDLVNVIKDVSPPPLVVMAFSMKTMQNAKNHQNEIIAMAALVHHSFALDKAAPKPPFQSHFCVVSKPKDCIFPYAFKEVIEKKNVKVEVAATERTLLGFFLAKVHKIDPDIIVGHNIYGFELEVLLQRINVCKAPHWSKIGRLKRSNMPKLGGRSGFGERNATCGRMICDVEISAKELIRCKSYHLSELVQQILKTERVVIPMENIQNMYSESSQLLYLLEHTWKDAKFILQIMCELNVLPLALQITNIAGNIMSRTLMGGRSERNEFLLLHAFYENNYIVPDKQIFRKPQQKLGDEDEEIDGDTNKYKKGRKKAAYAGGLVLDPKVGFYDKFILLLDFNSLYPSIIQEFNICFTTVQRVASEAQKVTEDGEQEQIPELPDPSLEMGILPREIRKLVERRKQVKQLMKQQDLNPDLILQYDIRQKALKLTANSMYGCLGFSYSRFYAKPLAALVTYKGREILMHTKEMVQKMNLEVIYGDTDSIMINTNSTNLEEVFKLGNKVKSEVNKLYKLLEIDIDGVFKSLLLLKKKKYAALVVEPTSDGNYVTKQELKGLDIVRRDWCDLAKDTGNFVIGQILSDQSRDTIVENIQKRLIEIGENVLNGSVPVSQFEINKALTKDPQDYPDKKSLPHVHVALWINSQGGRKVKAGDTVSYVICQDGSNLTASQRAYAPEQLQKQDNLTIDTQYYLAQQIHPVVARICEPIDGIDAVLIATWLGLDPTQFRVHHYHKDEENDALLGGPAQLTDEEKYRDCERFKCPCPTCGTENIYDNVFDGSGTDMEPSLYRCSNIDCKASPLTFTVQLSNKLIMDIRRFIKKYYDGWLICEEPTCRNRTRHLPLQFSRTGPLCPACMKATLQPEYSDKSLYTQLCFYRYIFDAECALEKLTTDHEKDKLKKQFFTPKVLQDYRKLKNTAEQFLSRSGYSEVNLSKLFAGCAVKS

[3] = biological target: the molecule itself

- binding result [1]: binds
- binding result [2]: binds
B1: AND-1 (human) (natural protein)
chain: MPATRKPMRYGHTEGHTEVCFDDSGSFIVTCGSDGDVRIWEDLDDDDPKFINVGEKAYSCALKSGKLVTAVSNNTIQVHTFPEGVPDGILTRFTTNANHVVFNGDGTKIAAGSSDFLVKIVDVMDSSQQKTFRGHDAPVLSLSFDPKDIFLASASCDGSVRVWQISDQTCAISWPLLQKCNDVINAKSICRLAWQPKSGKLLAIPVEKSVKLYRRESWSHQFDLSDNFISQTLNIVTWSPCGQYLAAGSINGLIIVWNVETKDCMERVKHEKGYAICGLAWHPTCGRISYTDAEGNLGLLENVCDPSGKTSSSKVSSRVEKDYNDLFDGDDMSNAGDFLNDNAVEIPSFSKGIINDDEDDEDLMMASGRPRQRSHILEDDENSVDISMLKTGSSLLKEEEEDGQEGSIHNLPLVTSQRPFYDGPMPTPRQKPFQSGSTPLHLTHRFMVWNSIGIIRCYNDEQDNAIDVEFHDTSIHHATHLSNTLNYTIADLSHEAILLACESTDELASKLHCLHFSSWDSSKEWIIDLPQNEDIEAICLGQGWAAAATSALLLRLFTIGGVQKEVFSLAGPVVSMAGHGEQLFIVYHRGTGFDGDQCLGVQLLELGKKKKQILHGDPLPLTRKSYLAWIGFSAEGTPCYVDSEGIVRMLNRGLGNTWTPICNTREHCKGKSDHYWVVGIHENPQQLRCIPCKGSRFPPTLPRPAVAILSFKLPYCQIATEKGQMEEQFWRSVIFHNHLDYLAKNGYEYEESTKNQATKEQQELLMKMLALSCKLEREFRCVELADLMTQNAVNLAIKYASRSRKLILAQKLSELAVEKAAELTATQVEEEEEEEDFRKKLNAGYSNTATEWSQPRFRNQVEEDAEDSGEADDEEKPEIHKPGQNSFSKSTNSSDVSAKSGAVTFSSQGRVNPFKVSASSKEPAMSMNSARSTNILDNMGKSSKKSTALSRTTNNEKSPIIKPLIPKPKPKQASAASYFQKRNSQTNKTEEVKEENLKNVLSETPAICPPQNTENQRPKTGFQMWLEENRSNILSDNPDFSDEADIIKEGMIRFRVLSTEERKVWANKAKGETASEGTEAKKRKRVVDESDETENQEEKAKENLNLSKKQKPLDFSTNQKLSAFAFKQE
notes: AND-1, human (Ctf4 in budding yeast)
- stoichiometry N [3]: 3
